Laboratory results: article doi:10.1101/2022.08.26.505501 (bioRxiv, 2022)

T1: co-expressed Kae1-Pcc1 subcomplex (2Kae1:2Pcc1) (Saccharolobus islandicus REY15A, UniProt F0NFC9 1-331; F0NF65 1-91)
T1 sequence (looked up) 1: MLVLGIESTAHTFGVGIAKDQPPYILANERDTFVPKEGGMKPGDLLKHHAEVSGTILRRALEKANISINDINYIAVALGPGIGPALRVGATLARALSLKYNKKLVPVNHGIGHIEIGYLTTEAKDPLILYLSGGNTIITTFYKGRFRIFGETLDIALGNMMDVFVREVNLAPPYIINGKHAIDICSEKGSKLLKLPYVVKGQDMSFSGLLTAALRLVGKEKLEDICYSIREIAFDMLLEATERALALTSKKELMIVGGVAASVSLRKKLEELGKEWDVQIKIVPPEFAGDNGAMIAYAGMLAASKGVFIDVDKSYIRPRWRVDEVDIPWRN
T1 sequence (looked up) 2: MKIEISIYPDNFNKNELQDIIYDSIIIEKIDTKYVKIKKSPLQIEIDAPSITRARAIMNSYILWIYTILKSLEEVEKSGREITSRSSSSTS

T2: His-Pcc1 co-expressed with no-tagged SisKae1 (Saccharolobus islandicus REY15A, UniProt F0NF65 1-91)
T2 sequence (looked up): T1 sequence (looked up) 2

B1: His-SisPcc1-like (natural protein, Saccharolobus islandicus REY15A, UniProt F0NIH8 1-81, looked up)
chain: MIELRILSEHEDAELIIRSLNVDNVNLPEGMSIQTKVEGKELEIVIKMRITKPNDLMTVRNTADEILAHIKALQSSFDAIS
B2: no-tagged SisKae1 (enzyme, Saccharolobus islandicus REY15A, UniProt F0NFC9 1-331, looked up)
chain: T1 sequence (looked up) 1

How the values were obtained:
Assay in all cases: SEC
[1] = biological target: T1, co-expressed Kae1-Pcc1 subcomplex …
no-tagged SisKae1 = biological target: B2
[2] = biological target: Flag-tagged SisKae1 co-expressed with His-tagged SisPcc1-like (Saccharolobus islandicus REY15A)
[3] = biological target: T2, His-Pcc1 co-expressed with no-tagged …

Binder | stoichiometry N [1] | stoichiometry N (no-tagged SisKae1) | stoichiometry N (Pcc1-like per Kae1) [2] | stoichiometry N [3]
B1 | 1 Kae1:Pcc1:Pcc1-like (1:1:1) | 1 Kae1:Pcc1-like (1:1) | 2 | –
B2 | – | – | – | 1 Kae1:Pcc1 (2:2)
